Reference: patent US8039438B2, “Synthetic peptides that cause F-actin bundling and block actin depolymerization” (The Regents of the University of California, priority 2003, dated 2011)
Entries after “also recorded” stand apart in the source; their conditions may differ.

What was measured:
rabbit muscle actin = molecular target: T1, rabbit muscle actin (Oryctolagus cuniculus, UniProt P68135); assay: In vitro bundling of actin by peptides (co-polymerization, differential centrifugation, SDS gel); assay type: biochemical; conditions: for In vitro actin bundling activity: Tables 2 and 3, peptide co-polymerized with actin in vitro; for activity designation of the peptide in the sequence list (active / less active / inactive): summary sequence table; for bundled actin upon inducing polymerization: polymerization induced (PI +)
T1 construct: Purified rabbit muscle actin (Cytoskeleton Inc., Denver, Mo.); purchased Cytoskeleton Inc; host or cells: rabbit muscle
Protocol: The peptides in Table 2 were added to polymerised actin in vitro at different molar ratios. Centrifugation was used to separate fractions containing F-actin, G-actin and bundled actin, which were then run out on […]. Purified rabbit muscle actin (Cytoskeleton Inc., Denver, Mo.) was depolymerized in Low Salt Buffer [LSB; 5 mM Tris-HCl, pH 8.0, 0.2 mM CaCl2, 0.2 mM ATP, 0.5 mM DTT, mM sucrose) for 1 h on ice and denucleated by centrifugation for 1 h at 100,000×g, 4° C. 13 μM monomeric actin was polymerized in vitro by addition of 1/50 vol. […] The samples were centrifuged for 15 min at 10,000×g at room temperature to pellet “bundled filaments”. The resulting supernatant was centrifuged for 1 h at 100,000×g at room temperature to separate F-actin filaments […]. The fractions were boiled in SDS-sample buffer and analyzed on a 10% SDS-Polyacrylamide gel stained with Coomassie.

[1] = system: dextran-labeled electroporated cells; assay: Change in number of dextran-labeled cells after electroporation with peptide; assay type: cell-based; conditions: dextran-labeled cells counted before and after 18 hrs incubation
Protocol: Electroporated cells were treated with fluorescent dextran plus peptide so those cells receiving the peptide could be identified. Typically a very small number of cells successfully incorporate substance during electroporation, making it difficult to identify those receiving peptide. Typically one sees 10-20% incorporation. But, there is good evidence showing that if a cell incorporates one component in buffer, it will incorporate all components. Thus, dextran can be used to identify those cells receiving peptide. After electroporation of cells with fluorescent dextran and the active peptide SEQ ID NO: 12, the dextran-labeled cells were initially counted and then incubated for 18 hrs. After incubation overnight, the dextran-labeled cells were once again counted. The following Tables 4 and 5 show the average change in dextran-labeled cells after the cells are electroporated and the peptide has invaded the cell body. The cell numbers of the SS12 treated peptide seemed to fluctuate after incubation with various concentrations of the SS12 peptide.

MDA 231 cells = assay: Actin reorganization in MDA 231 cells electroporated with peptide, rhodamine-phalloidin stained; assay type: cell-based, human; conditions: MDA 231 cells electroporated with peptide
Protocol: Referring now to FIG. 2, it can be shown that treatment with an active peptide results in actin organization in human mammary epithelial tumor cells. MDA 231 cells were electroporated with SS1 (panel A) or SS12 (panel B), fixed, and rhodamine-phalloidin stained. Control epithelial tumor cells were treated with SS1 (SEQ ID NO: 9) resulting in no effect on actin-filled lamellipodia (or ruffling) characteristic of crawling cells.
MDA 231 cells are a particularly aggressive tumor cell line crawling and moving from between tissues.

[2] = system: Embryos from Xenopus laevis; assay: Actin-dependent cleavage in embryos injected with peptide; assay type: in vivo; conditions: 0.6 mg/mL final concentration in egg; for effect on cell division of embryos: injected, fixed at 8-cell stage
Source text: Referring now to photographs of FIG. 3 the peptides have a severely abnormal effect on the embryonic development of cells. […] The embryos resemble the uninjected normal embryos of FIG. 3A
The resulting blastomeres were unable to regain function and were severely abnormal showing abortive cleavage furrows.
However, in the embryos injected with the active peptide (FIG. 3F), filamentous actin is seen in the abortive cleavage furrows.

[3] = system: actin comet tails in Xenopus egg extracts; assay: Actin comet-tail formation in cytoplasmic extracts; assay type: biochemical, Xenopus laevis; conditions: for effect on actin comet tails: FIGS. 4C, 4D, 4F, concentration not given
Protocol: In FIGS. 4A and 4B, in vitro polymerized actin forms comet tail from rhodamine-labeled actin added to Xenopus laevis egg cytoplasmic extract. This was set up according to the protocol in Taunton et al., J Cell Biol. 2000 Feb. 7; 148(3):519-30.
Crude Xenopus egg extract was prepared as described except that cytochalasin D was omitted (Murray and Kirschner, Nature. 1989 May 25; 339(6222):275-80). Cytosol and a heavy membrane fraction were prepared by centrifugation of the crude extract (2 h, 300.000 g max; BECKMAN SW-50 rotor). The viscous glycogen pellet beneath the membrane layer was discarded. Cytosol was further clarified by spinning for 15 min at 541,000 g max (BECKMAN TLA 100.3 rotor). Crude membranes (diluted with one volume of 2 M sucrose) and cytosol were snap frozen in separate aliquots for storage at −80° C. unless otherwise indicated. Clarified cytosol contained a small population of vesicles, but motility assays were far more robust (more comet tails over a longer time period) when cytosol was supplemented with the heavy membrane fraction.
For the standard assay, crude membranes in 1 M sucrose (20-μl aliquot, derived from ˜80 μl crude extract) were washed and resuspended in 14 μl buffer A (50 mM NaCl, 5 mM MgCl2, and 50 mM tris [pH 7.5]). To the membrane suspension were added 35 μl cytosol (derived from ˜80 μl crude extract), 0.3 μl rhodamine-labeled actin (prepared according to Kellogg et al., Development. 1988 August; 103(4):675-86), 3 μl PMA (20 μM stock in 10% DMSO), and 20 μl buffer A at 4° C. 20-μl samples were then warmed to room temperature. After 30-40 min, 2-μl aliquots were viewed with a Nikon E800 microscope to yield the photomicrographs of FIG. 4. Images were acquired with a Princeton Instruments cooled CCD camera (standard rhodamine filter set, Princeton Instruments, Trenton, N.J.) and analyzed with WINVIEW (Visitron System, Puchheim, Germany) or METAMORPH software (Princeton Instruments, Trenton, N.J.). Pixels having an intensity over a threshold value (set to a value greater than the background fluorescence in regions devoid of comet tails) were summed over 10 random fields to quantitate relative actin assembly.
Cytosol was supplemented with a crude membrane fraction, rhodamine-actin, 1 μM PMA and peptide SS2 or SS12 (1 μM). After incubating at room temperature for 20 min, samples were viewed by fluorescence. Actin comet tails formed in Xenopus cytoplasmic extracts where no SS2 or SS12 peptides were added as shown by the photographs A, B and E of FIG. 4.

[4] = molecular target: T2, rabbit muscle aldolase with actin (Oryctolagus cuniculus, UniProt P68135); assay: Aldolase co-precipitation with polymerized actin; assay type: biochemical; conditions: 1 nmol aldolase, 100 nmol peptide
T2 construct: presence (lanes 4-6) of rabbit muscle actin (2 nmol); purchased Sigma (aldolase); host or cells: rabbit muscle
Source text: Referring now to FIG. 7, since the SS2 sequence is specific to SuSy protein (with SS2 having some similarity to actin), we tested its effect on the well-known interaction of rabbit muscle aldolase with actin (Winter et al. 1998, Rabbit muscle aldolase was purchased from Sigma). Phalloidin could potentially interfere with the peptides of the invention since both drugs affect actin.
Addition of SS2 peptide had no effect on aldolase precipitation in the absence of actin (FIG. 7A), but increased the amount of aldolase co-precipitating with polymerized actin (FIG. 7B). Although binding of aldolase to actin is not sucrose dependent as shown for SuSy, the presence of Sucrose in the polymerization assay caused an additional increase in the amount of aldolase bound to polymerized actin as shown by lane 6 in FIG. 7B. Rabbit muscle aldolase (1 nmol) was incubated in the absence (lanes 1-3) or presence (lanes 4-6) of rabbit muscle actin (2 nmol).

[5] = 1:1 molar ratio peptide:actin, FIGS. 6C, 6D

Row | In vitro actin bundling activity (rabbit muscle actin) | activity designation of the peptide in the sequence list (active / less active / inactive) (rabbit muscle actin) | bundled actin upon inducing polymerization (rabbit muscle actin; [5]) | Sequence | bundling of actin during in vitro polymerization (rabbit muscle actin) | other results
1 | inactive | NR11 inactive |  | GPTLKRTASTAFMNTTSKK (NR11 inactive synthetic peptide) [reference compound] |  | 
2 |  | SS1 inactive |  | GDRVLSRLHSVRERIGK (synthetic SS1 inactive control peptide) [reference compound] |  | % change in cell number [1]: +45.0%; % change in cell number ([1]; peptide concentration 0.2 μM): +1.2%; % change in cell number ([1]; peptide concentration 1.0 μM): +17.4%; % change in cell number ([1]; peptide concentration 10.0 μM): +43.8%; effect on actin-filled lamellipodia (MDA 231 cells): no effect; effect on cell division of embryos [2]: no effect
3 |  |  |  | ENGIVRKWISRFEVW (synthetic peptide derived from Zea mays SuSy2 protein 357-389) [SEQ ID NO: 3, Zea mays SuSy2 375-389] |  | effect on actin comet tails [3]: complete disruption of the comet tails
4 | inactive | SS11 inactive | do not produce bundled actin | ILRVPFRTENGIVRK (SS11 inactive synthetic peptide) | not effective in bundling; also recorded: did not cause actin to bundle | 
5 | inactive | SP3 inactive | do not produce bundled actin | RRISSVEDKK (SP3 inactive synthetic peptide) [reference compound] |  | 
6 | less active | SMIN less active |  | WISRFEVW (Small block of SS12 sequence required for less active synthetic peptide) [SMIN] |  | 
7 | less active | SS15 less active | did not cause bundled actin | GIVRKAISRFEVAPYL (SS15 less active synthetic peptide) |  | form of polymerised actin (rabbit muscle actin; molar ratio peptide:actin 10:1 and 100:1, added to unpolymerized actin, FIG. 6E): predominantly in the bundled form
8 | inactive | SP26 inactive |  | GRMRRIATVEMMKK (SP26 inactive synthetic peptide) [reference compound] | not able to bundle actin filaments in vitro | 

Row | Sequence | In vitro actin bundling activity (rabbit muscle actin) | activity designation of the peptide in the sequence list (active / less active / inactive) (rabbit muscle actin) | bundled actin upon inducing polymerization (rabbit muscle actin; [5]) | bundling of actin during in vitro polymerization (rabbit muscle actin) | other results
9 | GIVRKWISRFEVWPYLKK (SS2 active peptide based on Zea mays SuSy 377- 392) | active | SS2 active | the bulk of the actin is bundled | most active | bundling of already polymerized (filamentous) actin (rabbit muscle actin; 2 nmol actin polymerized 30 min, then 0, 1, 2, 4 and 20 nmol peptide for 30 min, FIG. 6B): Only the highest concentration of SS2 caused bundling; bundled actin with peptide alone (rabbit muscle actin; 1:1 molar ratio peptide:actin, polymerization not induced, FIGS. 6C, 6D): half of the actin bundled; effect of phalloidin on bundling activity of the peptide (rabbit muscle actin; FIG. 7): not affected; distribution of actin between bundled and F-actin fraction (rabbit muscle actin; added to unpolymerized actin, molar ratio peptide to actin 0.5, FIG. 6A): half-bundled and half-F-actin; lasting effect on cell division ([2]; divisions typically an hour apart): at least 3 divisions; effect on cell division of embryos [2]: block several cell divisions; effect on actin comet tails [3]: complete disruption of the comet tails; actin comet tail formation ([3]; peptide 1 μM, 1 μM PMA, 20 min at room temperature): little or no actin comet tail formation; amount of aldolase co-precipitating with polymerized actin ([4]; 2 nmol actin, FIG. 7B): increased; aldolase precipitation in the absence of actin ([4]; FIG. 7A): no effect
